Experimental data taken from the Human Domainome abundance scans (Beltran et al. 2025).
± gives the uncertainty stated by the source.

B1: 3'-5' exoribonuclease 1, residues 65 to 114; numbered along this chain, Q8IV48 (parent)
chain: VYKEIAITNGCINRMSKEELRAKLSEFKLETRGVKDVLKKRLKNYYKKQK
B2: Protein C-ets-1, residues 55 to 135; numbered along this chain, P14921 (parent)
chain: GFTKEQQRLGIPKDPRQWTETHVRDWVMWAVNEFSLKGVDFQKFCMNGAALCALGKDCFLELAPDFVGDILWEHLEILQKE

Variants of: B1
Assay: abundance fitness (aPCA) (normalised: wild type 0, dead -1); higher = more abundant; growth selection in yeast, the domain comes from the species named
Conditions: Homo sapiens

Variant | abundance fitness
VYKEIAITNGCINRMSKEELRAKLSEFKLETRGVKDVLKKRLKNYYKKQQ | -0.123 ± 0.073
VYKEIAITNGCINRMSKEELRAKLSEFKLETRGVKDVLKKRLKNYYKKQR | -0.089 ± 0.071
VYKEIAITNGCINRMSKEELRAKLSEFKLETRGVKDVLKKRLKNYYKKQV | -0.081 ± 0.23
VYKEIAITNGCINRMSKEELRAKLSEFKLETRGVKDVLKKRLKNYYKKQL | -0.058 ± 0.09
VYKEIAITNGCINRMSKEELRAKLSEFKLETRGVKDVLKKRLKNYYKKQA | -0.159 ± 0.12
VYKEIAITNGCINRMSKEELRAKLSEFKLETRGVKDVLKKRLKNYYKKQG | -0.299 ± 0.12
VYKEIAITNGCINRMSKEELRAKLSEFKLETRGVKDVLKKRLKNYYKKQM | -0.216 ± 0.094
VYKEIAITNGCINRMSKEELRAKLSEFKLETRGVKDVLKKRLKNYYKKQW | -0.052 ± 0.12
VYKEIAITNGCINRMSKEELRAKLSEFKLETRGVKDVLKKRLKNYYKKQN | -0.06 ± 0.048
VYKEIAITNGCINRMSKEELRAKLSEFKLETRGVKDVLKKRLKNYYKKQE | -0.13 ± 0.091
VYKEIAITNGCINRMSKEELRAKLSEFKLETRGVKDVLKKRLKNYYKKQP | -0.201 ± 0.32
VYKEIAITNGCINRMSKEELRAKLSEFKLETRGVKDVLKKRLKNYYKKQY | -0.162 ± 0.058
VYKEIAITNGCINRMSKEELRAKLSEFKLETRGVKDVLKKRLKNYYKKQD | -0.347 ± 0.074
VYKEIAITNGCINRMSKEELRAKLSEFKLETRGVKDVLKKRLKNYYKKQI | -0.157 ± 0.07
VYKEIAITNGCINRMSKEELRAKLSEFKLETRGVKDVLKKRLKNYYKKQT | -0.179 ± 0.06
VYKEIAITNGCINRMSKEELRAKLSEFKLETRGVKDVLKKRLKNYYKKQH | -0.164 ± 0.059
VYKEIAITNGCINRMSKEELRAKLSEFKLETRGVKDVLKKRLKNYYKKIK | -0.074 ± 0.072
VYKEIAITNGCINRMSKEELRAKLSEFKLETRGVKDVLKKRLKNYYKKLK | -0.099 ± 0.039
VYKEIAITNGCINRMSKEELRAKLSEFKLETRGVKDVLKKRLKNYYKKCK | -0.154 ± 0.05

Variant | abundance fitness
VYKEIAITNGCINRMSKEELRAKLSEFKLETRGVKDVLKKRLKNYYKKHK | -0.109 ± 0.032
VYKEIAITNGCINRMSKEELRAKLSEFKLETRGVKDVLKKRLKNYYKKSK | -0.19 ± 0.04
VYKEIAITNGCINRMSKEELRAKLSEFKLETRGVKDVLKKRLKNYYKKEK | -0.192 ± 0.055
VYKEIAITNGCINRMSKEELRAKLSEFKLETRGVKDVLKKRLKNYYKKWK | -0.206 ± 0.041
VYKEIAITNGCINRMSKEELRAKLSEFKLETRGVKDVLKKRLKNYYKKTK | -0.064 ± 0.06
VYKEIAITNGCINRMSKEELRAKLSEFKLETRGVKDVLKKRLKNYYKKGK | -0.306 ± 0.035
VYKEIAITNGCINRMSKEELRAKLSEFKLETRGVKDVLKKRLKNYYKKVK | -0.182 ± 0.039
VYKEIAITNGCINRMSKEELRAKLSEFKLETRGVKDVLKKRLKNYYKKRK | -0.221 ± 0.032
VYKEIAITNGCINRMSKEELRAKLSEFKLETRGVKDVLKKRLKNYYKKFK | -0.208 ± 0.076
VYKEIAITNGCINRMSKEELRAKLSEFKLETRGVKDVLKKRLKNYYKKNK | -0.099 ± 0.077
VYKEIAITNGCINRMSKEELRAKLSEFKLETRGVKDVLKKRLKNYYKKYK | -0.065 ± 0.068
VYKEIAITNGCINRMSKEELRAKLSEFKLETRGVKDVLKKRLKNYYKKKK | -0.083 ± 0.055
VYKEIAITNGCINRMSKEELRAKLSEFKLETRGVKDVLKKRLKNYYKKDK | -0.353 ± 0.061
VYKEIAITNGCINRMSKEELRAKLSEFKLETRGVKDVLKKRLKNYYKKAK | -0.164 ± 0.04
VYKEIAITNGCINRMSKEELRAKLSEFKLETRGVKDVLKKRLKNYYKKMK | -0.04 ± 0.068
VYKEIAITNGCINRMSKEELRAKLSEFKLETRGVKDVLKKRLKNYYKWQK | -0.393 ± 0.043
VYKEIAITNGCINRMSKEELRAKLSEFKLETRGVKDVLKKRLKNYYKYQK | -0.279 ± 0.059
VYKEIAITNGCINRMSKEELRAKLSEFKLETRGVKDVLKKRLKNYYKVQK | -0.432 ± 0.038

Variants of: B2
Assay: as above
Conditions: Homo sapiens

Variant | abundance fitness
DFTKEQQRLGIPKDPRQWTETHVRDWVMWAVNEFSLKGVDFQKFCMNGAALCALGKDCFLELAPDFVGDILWEHLEILQKE | 0.074 ± 0.062
KFTKEQQRLGIPKDPRQWTETHVRDWVMWAVNEFSLKGVDFQKFCMNGAALCALGKDCFLELAPDFVGDILWEHLEILQKE | 0.049 ± 0.24
NFTKEQQRLGIPKDPRQWTETHVRDWVMWAVNEFSLKGVDFQKFCMNGAALCALGKDCFLELAPDFVGDILWEHLEILQKE | 0.143 ± 0.27
EFTKEQQRLGIPKDPRQWTETHVRDWVMWAVNEFSLKGVDFQKFCMNGAALCALGKDCFLELAPDFVGDILWEHLEILQKE | -0.042 ± 0.068
LFTKEQQRLGIPKDPRQWTETHVRDWVMWAVNEFSLKGVDFQKFCMNGAALCALGKDCFLELAPDFVGDILWEHLEILQKE | -0.157 ± 0.092
AFTKEQQRLGIPKDPRQWTETHVRDWVMWAVNEFSLKGVDFQKFCMNGAALCALGKDCFLELAPDFVGDILWEHLEILQKE | -0.091 ± 0.076
CFTKEQQRLGIPKDPRQWTETHVRDWVMWAVNEFSLKGVDFQKFCMNGAALCALGKDCFLELAPDFVGDILWEHLEILQKE | -0.21 ± 0.11
IFTKEQQRLGIPKDPRQWTETHVRDWVMWAVNEFSLKGVDFQKFCMNGAALCALGKDCFLELAPDFVGDILWEHLEILQKE | -0.077 ± 0.16
RFTKEQQRLGIPKDPRQWTETHVRDWVMWAVNEFSLKGVDFQKFCMNGAALCALGKDCFLELAPDFVGDILWEHLEILQKE | -0.191 ± 0.067
MFTKEQQRLGIPKDPRQWTETHVRDWVMWAVNEFSLKGVDFQKFCMNGAALCALGKDCFLELAPDFVGDILWEHLEILQKE | -0.186 ± 0.16
